Reference: US20210130452A1 (Merck KGaA, published 2021)
“And” between values parts separate entries of the source, which are not always exact repeats. Equal values may be shown once. Read-outs that look alike come from different tables or passages of the source. Each block holds one binder with its values, some of them ahead of it.

Assays:
[1] = target: T1, human IL-17A (human, UniProt Q16552 24-155); assay: cell-based or functional assay
T1 sequence (Q16552 other isoform, or with tags, fused parts or gaps): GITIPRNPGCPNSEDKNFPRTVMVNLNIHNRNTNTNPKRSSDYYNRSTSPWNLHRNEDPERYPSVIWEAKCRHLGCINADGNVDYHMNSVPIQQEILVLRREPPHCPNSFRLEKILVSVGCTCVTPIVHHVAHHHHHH

[2] = target: T2, human IL-17F (human, UniProt Q96PD4 31-163); assay: cell-based or functional assay
T2 sequence: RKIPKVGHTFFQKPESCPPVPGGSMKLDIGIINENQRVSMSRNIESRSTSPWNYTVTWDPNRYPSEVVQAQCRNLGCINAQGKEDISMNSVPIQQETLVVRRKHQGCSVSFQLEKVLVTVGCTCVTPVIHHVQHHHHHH

[3] = target: T2, human IL-17F; assay: KinExA, 10 pM Nanobody
[4] = target: T1, human IL-17A; assay: KinExA, 50 pM Nanobody
Method: (§1) The affinity of a limited set of formatted Nanobodies was determined using the KinExA.

[5] = target: T2, human IL-17F; assay: KinExA, 50 pM Nanobody
Method: as §1

[6] = target: T1, human IL-17A; assay: competition ELISA IL17A-RA
Method: To this end, IL-17RA, respectively IL-17RC was coated at a concentration of 1 μg/ml in PBS.

[7] = target: T3, human IL-17A (human, UniProt Q16552 24-155); assay: SPR (Biacore) off-rate
T3 construct: secreted form made in Hek293 cells (GenBank U32659); also called hIL-17A; hIL17A
T3 sequence (Q16552 other isoform, or with tags, fused parts or gaps): as the sequence (Q16552 other isoform, or with tags, fused parts or gaps) above

[8] = target: T4, human IL-17F (human, UniProt Q96PD4 31-163); assay: SPR (Biacore) off-rate
T4 construct: made in Hek293 cells (GenBank AF384857); also called hIL-17F; hIL17F
T4 sequence: T2 sequence

[9] = target: T5, human IL-17A/F heterodimer (human, UniProt Q16552 24-155; Q96PD4 31-163, limits assumed); assay: SPR (Biacore) off-rate
T5 construct: bought, made in E. coli (R&D Systems 5194-IL/CF); also called hIL-17A/F; hIL17A/F
Target sequence in this assay (Q16552 24-155 limits assumed, one chain of several): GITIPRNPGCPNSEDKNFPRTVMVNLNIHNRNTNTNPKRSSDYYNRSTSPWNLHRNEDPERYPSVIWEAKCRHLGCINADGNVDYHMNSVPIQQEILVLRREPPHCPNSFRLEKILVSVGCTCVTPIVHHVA

[10] = target: T3, human IL-17A; assay: SPR (Biacore) off-rate; remark: listed apart in the source
[11] = target: T4, human IL-17F; assay: SPR (Biacore) off-rate; remark: listed apart in the source
[12] = target: T5, human IL-17A/F heterodimer; assay: SPR (Biacore) off-rate; remark: listed apart in the source
Target sequence in this assay (Q16552 24-155 limits assumed, one chain of several): as above

[13] = target: T6, Cynomolgus monkey IL-17A (Cynomolgus monkey, UniProt A0A2K5TTB0 24-155); assay: SPR (Biacore) off-rate
T6 construct: also called cyno IL-17A; cIL-17A
T6 sequence (A0A2K5TTB0 entry or part of it): as the sequence (Q16552 24-155 limits assumed, one chain of several) above, with T3A, P8S, N34S, I77V, N78K, P104R counted along it

[14] = target: T7, Cynomolgus monkey IL-17F (Cynomolgus monkey, UniProt G7P4V0 31-163); assay: SPR (Biacore) off-rate
T7 construct: also called cyno IL-17F; cIL-17F
T7 sequence: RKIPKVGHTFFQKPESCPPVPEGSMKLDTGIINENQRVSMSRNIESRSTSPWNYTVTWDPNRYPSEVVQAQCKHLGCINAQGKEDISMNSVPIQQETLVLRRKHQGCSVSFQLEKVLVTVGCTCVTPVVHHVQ

[15] = target: T3, human IL-17A; assay: cell-based or functional assay; remark: listed apart in the source
[16] = target: T4, human IL-17F; assay: cell-based or functional assay; remark: listed apart in the source
[17] = target: T5, human IL-17A/F heterodimer; assay: cell-based or functional assay
Target sequence in this assay (Q16552 24-155 limits assumed, one chain of several): as the sequence (Q16552 24-155 limits assumed, one chain of several) above

[18] = target: T7, Cynomolgus monkey IL-17F; assay: cell-based or functional assay
[19] = target: T3, human IL-17A; assay: AlphaScreen hIL-17A-IL-17RA; reference itself
[20] = target: T4, human IL-17F; assay: AlphaScreen hIL-17F-IL-17RC; reference itself
[21] = target: T3, human IL-17A; assay: AlphaScreen hIL-17A-IL-17RA; reference itself; remark: listed apart in the source
[22] = target: T4, human IL-17F; assay: AlphaScreen hIL-17F-IL-17RC; reference itself; remark: listed apart in the source
[23] = target: T3, human IL-17A; assay: SPR (Biacore) off-rate; remark: listed apart in the source
[24] = target: T4, human IL-17F; assay: SPR (Biacore) off-rate; remark: listed apart in the source
[25] = target: T5, human IL-17A/F heterodimer; assay: SPR (Biacore) off-rate; remark: listed apart in the source
Target sequence in this assay (Q16552 24-155 limits assumed, chain 1 of 2, one chain of several): as the sequence (Q16552 24-155 limits assumed, one chain of several) above

[26] = target: T3, human IL-17A; assay: SPR (Biacore) off-rate; remark: listed apart in the source
[27] = target: T4, human IL-17F; assay: SPR (Biacore) off-rate; remark: listed apart in the source
[28] = target: T5, human IL-17A/F heterodimer; assay: SPR (Biacore) off-rate; remark: listed apart in the source
Target sequence in this assay (Q16552 24-155 limits assumed, one chain of several): as above

[29] = target: T6, Cynomolgus monkey IL-17A; assay: SPR (Biacore) off-rate; remark: listed apart in the source
[30] = target: T7, Cynomolgus monkey IL-17F; assay: SPR (Biacore) off-rate; remark: listed apart in the source
[31] = target: T3, human IL-17A; assay: cell-based or functional assay; remark: listed apart in the source
[32] = target: T4, human IL-17F; assay: cell-based or functional assay; remark: listed apart in the source
[33] = target: T5, human IL-17A/F heterodimer; assay: cell-based or functional assay; remark: listed apart in the source
Target sequence in this assay (Q16552 24-155 limits assumed, one chain of several): as above

[34] = target: T7, Cynomolgus monkey IL-17F; assay: cell-based or functional assay; remark: listed apart in the source
[35] = target: T3, human IL-17A; assay: AlphaScreen hIL-17A-IL-17RA; reference itself; remark: listed apart in the source
[36] = target: T4, human IL-17F; assay: AlphaScreen hIL-17F-IL-17RC; reference itself; remark: listed apart in the source
[37] = target: T3, human IL-17A; assay: AlphaScreen hIL-17A-IL-17RA; reference itself; remark: listed apart in the source
[38] = target: T4, human IL-17F; assay: AlphaScreen hIL-17F-IL-17RC; reference itself; remark: listed apart in the source
[39] = target: T3, human IL-17A; assay: AlphaScreen hIL-17A-IL-17RA; vs IL17MS13E02
[40] = target: T4, human IL-17F; assay: AlphaScreen hIL-17F-IL-17RC; vs IL17MS13E02
[41] = target: T1, human IL-17A; assay: cell-based or functional assay; remark: listed apart in the source
[42] = target: T2, human IL-17F; assay: cell-based or functional assay; remark: listed apart in the source
[43] = target: Cynomolgus monkey IL-17A (Cynomolgus monkey, UniProt A0A2K5TTB0 24-155); assay: cell-based or functional assay
Target sequence in this assay (A0A2K5TTB0 entry or part of it): as the sequence (Q16552 24-155 limits assumed, one chain of several) above, with T3A, P8S, N34S, I77V, N78K, P104R counted along it

[44] = target: T8, Cynomolgus monkey IL-17F (Cynomolgus monkey, UniProt G7P4V0 31-163); assay: cell-based or functional assay; remark: listed apart in the source
T8 sequence: T7 sequence

[45] = target: T1, human IL-17A; assay: KinExA, 300 pM Nanobody
Method: as §1

[46] = target: T2, human IL-17F; assay: KinExA, 300 pM Nanobody
Method: as §1

[47] = target: T1, human IL-17A; assay: KinExA, 30 pM Nanobody
[48] = target: T1, human IL-17A; assay: KinExA, 100 pM Nanobody
Method: as §1

[49] = target: T2, human IL-17F; assay: KinExA, 600 pM Nanobody

B1: 13B03-LH-Fc (Fc fusion, not shown: a dimerising Fc or GST)
chain: EVQLVESGGGSVQAGDSLRLSCAASGRANSINWFGWFRQTPGKEREFVAGIRWSDAYTEYANSVKGRFTISRDNAKNTVDLQMDSLKPEDTAVYYCVLDLSTVRYWGQGTQVTVSSEPKTPKPQPQPQPQPNPTTESKCPKCP
notes: bivalent Fc fusion from Hek-293-6E cells; also called MSB0010530
Emax, hIL-17A induced IL-6, HT-1080, 100 µM HSA [1]: 97.5% | IC50, hIL-17A induced IL-6, HT-1080, 100 µM HSA [1]: 0.95 nM | IC50, hIL-17F induced IL-6, HT-1080, 100 µM HSA [2]: 15.6 nM | Kd [3]: 0.0223 nM | Kd [4]: 2 pM | Kd [5]: 0.02 nM | IC50 [6]: 0.031 nM

B3: IL17MS13E02 (VHH)
VHH: EVQLVESGGGLVQAGGSLRLSCAASGRTYDAMGWLRQAPGKEREFVAAISGSGDDTYYADSVKGRFTISKDNAGITMYLQMNSLKPEDTAVYYCATRRGLYYVWDSNDYENWGQGTQVTVSS
notes: Class 4 Nanobody, wild type; also called WT
koff [23]: 0.000114 s⁻¹ | koff [24]: 0.00223 s⁻¹ | koff [25]: 3.97e-05 s⁻¹ | koff [26]: 0.000114 s⁻¹ | koff [27]: 0.00223 s⁻¹ | koff [28]: 3.97e-05 s⁻¹ | koff [29]: 0.000103 s⁻¹ | koff [30]: 0.046 s⁻¹ | IC50 cell based assay hIL-17A [31]: 1.73 nM | IC50 cell based assay hIL-17F [32]: 44 nM | IC50 cell based assay hIL-17A/F [33]: 1.99 nM | IC50 cell based assay cyno IL-17F [34]: 35 nM | IC50 fold difference vs WT [35]: 1 fold | IC50 fold difference vs WT [36]: 1 fold | IC50 fold difference vs WT [37]: 1 fold | IC50 fold difference vs WT [38]: 1 fold

B5: 13B03-SH-Fc (Fc fusion, not shown: a dimerising Fc or GST)
chain: EVQLVESGGGSVQAGDSLRLSCAASGRANSINWFGWFRQTPGKEREFVAGIRWSDAYTEYANSVKGRFTISRDNAKNTVDLQMDSLKPEDTAVYYCVLDLSTVRYWGQGTQVTVSSEPKSSDKTHTCPPCP
notes: bivalent Fc fusion from Hek-293-6E cells; signal peptide left out; also called MSB0010493; 13B03VHH-SH-Fc
Emax, hIL-17A induced IL-6, HT-1080, without HSA [41]: 100% | IC50, hIL-17A induced IL-6, HT-1080, without HSA [41]: 0.19 nM | IC50, hIL-17F induced IL-6, HT-1080, without HSA [42]: 5.8 nM | IC50, Cyno IL17A, HT-1080 bioassay [43]: 0.21 nM | IC50, Cyno IL17F, HT-1080 bioassay [44]: 3.8 nM | Kd [45]: 0.2 pM | Kd [46]: 0.132 nM | IC50 [6]: 0.02 nM

B7: 13E02-LH-Fc (Fc fusion, not shown: a dimerising Fc or GST)
chain: EVQLVESGGGLVQAGGSLRLSCAASGRTYDAMGWLRQAPGKEREFVAAISGSGDDTYYADSVKGRFTISKDNAGITMYLQMNSLKPEDTAVYYCATRRGLYYVWDSNDYENWGQGTQVTVSSEPKTPKPQPQPQPQPNPTTESKCPKCP
notes: bivalent Fc fusion from Hek-293-6E cells; also called MSB0010606
IC50, hIL-17A induced IL-6, HT-1080, without HSA [41]: 0.19 nM | IC50, hIL-17F induced IL-6, HT-1080, without HSA [42]: 2.7 nM | Emax, hIL-17A induced IL-6, HT-1080, 100 µM HSA [1]: 98.5% | IC50, hIL-17A induced IL-6, HT-1080, 100 µM HSA [1]: 0.85 nM | IC50, hIL-17F induced IL-6, HT-1080, 100 µM HSA [2]: 15.3 nM | IC50, Cyno IL17A, HT-1080 bioassay [43]: 0.19 nM | Kd [49]: 2.04 nM

More lines, now with the values ahead:

koff [7]: 0.000131 s⁻¹ and 0.000208 s⁻¹ | koff [8]: 0.00792 s⁻¹ | koff [9]: 6.21e-05 to 0.000125 s⁻¹ | koff [10]: 0.000131 s⁻¹ and 0.000208 s⁻¹ | koff [11]: 0.00792 s⁻¹ | koff [12]: 6.21e-05 to 0.000125 s⁻¹ | koff [13]: 0.000114 s⁻¹ | koff [14]: 0.00469 s⁻¹ | IC50 cell based assay hIL17A [15]: 1.34 nM | IC50 cell based assay hIL17F [16]: 35 nM | IC50 cell based assay hIL17A/F [17]: 4.32 nM | IC50 cell based assay cyno IL17F [18]: 29 nM | IC50 fold difference compared to WT [19]: 1 fold | IC50 fold difference compared to WT [20]: 1 fold | IC50 fold difference compared to WT [21]: 1 fold | IC50 fold difference compared to WT [22]: 1 fold
B2: IL17MS13B03 (VHH)
VHH: EVQLVESGGGSVQAGDSLRLSCAASGRANSINWFGWFRQTPGKEREFVAGIRWSDAYTEYANSVKGRFTISRDNAKNTVDLQMDSLKPEDTAVYYCVLDLSTVRYWGQGTQVTVSS
notes: as for B3

IC50 cell based assay hIL-17A [31]: 0.77 nM | IC50 cell based assay hIL-17F [32]: 27 nM | IC50 cell based assay hIL-17A/F [33]: 3.5 nM | IC50 cell based assay cyno IL-17F [34]: 25.2 nM | IC50 fold difference vs WT [39]: 0.59 fold | IC50 fold difference vs WT [40]: 0.3 fold
B4: IL17MS3072 (VHH)
VHH: DVQLVESGGGLVQPGGSLRLSCAASGRTYDALGWLRQAPGKEREFVAAISGSGDDTYYADSVKGRFTISRDNSKNTLYLQMNSLRPEDTAVYYCATRRGLYYVWDANDYENWGQGTLVTVSS
notes: variant of IL17MS13E02; Kabat numbering

Kd [47]: 3.6 pM | Kd [48]: 9 pM
B6: 13E02-SH-Fc (Fc fusion, not shown: a dimerising Fc or GST)
chain: EVQLVESGGGLVQAGGSLRLSCAASGRTYDAMGWLRQAPGKEREFVAAISGSGDDTYYADSVKGRFTISKDNAGITMYLQMNSLKPEDTAVYYCATRRGLYYVWDSNDYENWGQGTQVTVSSEPKSSDKTHTCPPCP
notes: bivalent Fc fusion from Hek-293-6E cells
